One experiment addresses TurboID-BRD4-ET (UniProt O60885 600-678). Briefly: proximity labelling.
For experiment [1], the target named is T1, BRD4-ET domain (for ITC) (UniProt O60885 600-678). The experiment is described as follows: ITC. In general terms: In ITC the heat of successive injections is recorded.
The target in experiment [2] is T1, BRD4-ET domain (for ITC). Briefly: ITC. This is another data set of the same source.
Another experiment has as its target GST-BRD2^632-710 (UniProt P25440 632-710). The experiment is described as follows: pull-down.
A further experiment has as its target GST-BRD3^562-640 (UniProt Q15059 562-640). The experiment is described as follows: pull-down.
The target in the next experiment is GST-BRD4^600-678 (UniProt O60885 600-678). Briefly: pull-down.

Changes are numbered by the printed parent chain. Numbers in names are those of the source. Read-outs that look alike come from different tables or passages of the source.

This note sets out measurements from article doi:10.1101/2021.07.15.452438 (bioRxiv, 2021).

For orientation: Kd means the concentration at which binding is half-saturated.

GST-BRD2^632-710, sequence (P25440 632-710): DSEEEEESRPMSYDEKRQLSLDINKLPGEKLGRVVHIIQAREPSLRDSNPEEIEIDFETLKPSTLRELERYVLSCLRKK
GST-BRD3^562-640, sequence (Q15059 562-640): as the sequence (P25440 632-710) above, with S8G, R9L, K25R, A40S, E51D, S63T, L73K, R77Q counted along it

B1: ASXL1^Y591X (domain or fragment)
chain: MKDKQKKKKERTWAEAARLVLENYSDAPMTPKQILQVIEAEGLKEMRSGTSPLACLNAMLHSNSRGGEGLFYKLPGRISLFTLKKDALQWSRHPATVEGEEPEDTADVESCGSNEASTVSGENDVSLDETSSNASCSTESQSRPLSNPRDSYRASSQANKQKKKTGVMLPRVVLTPLKVNGAHVESASGFSGCHADGESGSPSSSSSGSLALGSAAIRGQAEVTQDPAPLLRGFRKPATGQMKRNRGEEIDFETPGSILVNTNLRALINSRTFHALPSHFQQQLLFLLPEVDRQVGTDGLLRLSSSALNNEFFTHAAQSWRERLADGEFTHEMQVRIRQEMEKEKKVEQWKEKFFEDYYGQKLGLTKEESLQQNVGQEEAEIKSGLCVPGESVRIQRGPATRQRDGHFKKRSRPDLRTRARRNLYKKQESEQAGVAKDAKSVASDVPLYKDGEAKTDPAGLSSPHLPGTSSAAPDLEGPEFPVESVASRIQAEPDNLARASASPDRIPSLPQETVDQEPKDQKRKSFEQAASASFPEKKPRLEDRQSFRNTIESVHTEKPQPTKEEPKVPPIRIQLSRIKPPWVVKGQPT
As for B1, in the experiment with TurboID-BRD4-ET, the “fold enhancement of BRD4-ET binding over full-length ASXL1” value amounted to 3.5 fold and the “fold enhancement of ET-domain binding over full-length ASXL1, peptide […]” value was around 3 fold.

B2: His6MBP-ASXL2^582-634 (domain or fragment)
chain: EKRPRVTENRQHQQPFQVSPQPFLNRGDRIQVRKVPPLKIPVSRISPMPFHPS
As for B2, the Kd with BRD4-ET domain (for ITC) [1] was determined as 1100 nM. In turn, PKVPPIRIQLSRIKPPWVVKG (domain or fragment) [His6MBP-fused ASXL1^567-587] yielded a Kd with BRD4-ET domain (for ITC) [1] of 1360 nM. This Kd and that of the molecule before are within 1.5-fold of each other.

B3: His6MBP-ASXL3^977-1027 (domain or fragment)
chain: EKRARIEDDQSTRNISSSSPPEKEQPPREEPRVPPLKIQLSKIGPPFIIKS
In the case of B3, the Kd with BRD4-ET domain (for ITC) [1] stood at 2000 nM.

B4: His6MBP-ASXL1^537-587 (domain or fragment)
chain: EKKPRLEDRQSFRNTIESVHTEKPQPTKEEPKVPPIRIQLSRIKPPWVVKG
Regarding B4, the Kd in the experiment with BRD4-ET domain (for ITC) [2] was found to be 535 nM; with BRD4-ET domain (for ITC) [1] it was 1300 nM. The binding result in the experiment with GST-BRD2^632-710 and with GST-BRD3^562-640 was “binds” throughout.

B5: His6MBP-ASXL1^537-587 with the motif arginine mutated to alanine (domain or fragment)
chain: B4 chain with R37A
On to B5, for which the binding result with GST-BRD4^600-678 is on record as “binds”.

B6: His6MBP-ASXL1^537-587 Q575A (domain or fragment)
chain: B4 chain with Q39A
For the molecule B6, in the experiment with GST-BRD4^600-678, the binding result is recorded as “binds”.
